Earlier results in paper PMC7605336.

Target: Spike protein RBD (SARS-CoV-2) (UniProt P0DTC2)

For “SBP1 (ACE2 α1 helix-derived 23-mer peptide) α1 helix (from UniProt Q9BYF1)”, the Kd is listed as 47 nM.
